Results from the MegaScale stability set (Tsuboyama et al. 2023).

B1: EHEE_rd4_0726 (parent)
chain: DIEITTNGEEDAKRVIKELQKRNLEYHIEVHGNQWVIKVR

Variants of: B1
Test: folding stability dG (cDNA display proteolysis); higher = more stable
Conditions: PBS, room temperature

Variant	folding stability dG [kcal/mol]
DIEITTNGEEDAKRVIKELQKRNLYYHIEVHGNQWVIKVR [E25Y]	2.43
DIEITTNGEEDAKRVIKELQKRNLDYHIEVHGNQWVIKVR [E25D]	2.31
DIEITTNGEEDAKRVIKELQKRNLAYHIEVHGNQWVIKVR [E25A]	2.53
DIEITTNGEEDAKRVIKELQKRNLWYHIEVHGNQWVIKVR [E25W]	2.52
DIEITTNGEEDAKRVIKELQKRNLPYHIEVHGNQWVIKVR [E25P]	2.33
DIEITTNGEEDAKRVIKELQKRNLTYHIEVHGNQWVIKVR [E25T]	2.66
DIEITTNGEEDAKRVIKELQKRNLLYHIEVHGNQWVIKVR [E25L]	2.6
DIEITTNGEEDAKRVIKELQKRNLVYHIEVHGNQWVIKVR [E25V]	2.58
DIEITTNGEEDAKRVIKELQKRNLFYHIEVHGNQWVIKVR [E25F]	2.49
DIEITTNGEEDAKRVIKELQKRNLIYHIEVHGNQWVIKVR [E25I]	2.66
DIEITTNGEEDAKRVIKELQKRNLHYHIEVHGNQWVIKVR [E25H]	2.7
DIEITTNGEEDAKRVIKELQKRNLRYHIEVHGNQWVIKVR [E25R]	2.58
DIEITTNGEEDAKRVIKELQKRNLGYHIEVHGNQWVIKVR [E25G]	2.04
DIEITTNGEEDAKRVIKELQKRNLSYHIEVHGNQWVIKVR [E25S]	2.67
DIEITTNGEEDAKRVIKELQKRNLQYHIEVHGNQWVIKVR [E25Q]	2.6
DIEITTNGEEDAKRVIKELQKRNLMYHIEVHGNQWVIKVR [E25M]	2.52
DIEITTNGEEDAKRVIKELQKRNLKYHIEVHGNQWVIKVR [E25K]	2.76
DIEITTNGEEDAKRVIKELQKRNLNYHIEVHGNQWVIKVR [E25N]	2.28
DIEITTNGEEDAKRVIKELQKRSLEYHIEVHGNQWVIKVR [N23S]	1.95
DIEITTNGEEDAKRVIKELQKRMLEYHIEVHGNQWVIKVR [N23M]	2.13
DIEITTNGEEDAKRVIKELQKRQLEYHIEVHGNQWVIKVR [N23Q]	2.18
DIEITTNGEEDAKRVIKELQKRTLEYHIEVHGNQWVIKVR [N23T]	1.2
DIEITTNGEEDAKRVIKELQKRHLEYHIEVHGNQWVIKVR [N23H]	2.4
DIEITTNGEEDAKRVIKELQKRELEYHIEVHGNQWVIKVR [N23E]	1.66
DIEITTNGEEDAKRVIKELQKRWLEYHIEVHGNQWVIKVR [N23W]	1.51

Variant	folding stability dG [kcal/mol]
DIEITTNGEEDAKRVIKELQKRVLEYHIEVHGNQWVIKVR [N23V]	1.09
DIEITTNGEEDAKRVIKELQKRKLEYHIEVHGNQWVIKVR [N23K]	2.42
DIEITTNGEEDAKRVIKELQKRILEYHIEVHGNQWVIKVR [N23I]	0.939
DIEITTNGEEDAKRVIKELQKRLLEYHIEVHGNQWVIKVR [N23L]	1.77
DIEITTNGEEDAKRVIKELQKRALEYHIEVHGNQWVIKVR [N23A]	2.03
DIEITTNGEEDAKRVIKELQKRGLEYHIEVHGNQWVIKVR [N23G]	3.26
DIEITTNGEEDAKRVIKELQKRPLEYHIEVHGNQWVIKVR [N23P]	0.565
DIEITTNGEEDAKRVIKELQKRFLEYHIEVHGNQWVIKVR [N23F]	1.92
DIEITTNGEEDAKRVIKELQKRCLEYHIEVHGNQWVIKVR [N23C]	1.79
DIEITTNGEEDAKRVIKELQKRRLEYHIEVHGNQWVIKVR [N23R]	2.43
DIEITTNGEEDAKRVIKELQKRDLEYHIEVHGNQWVIKVR [N23D]	1.72
DIEITTNGEEDAKRVIKELQKRYLEYHIEVHGNQWVIKVR [N23Y]	1.67
DIEITTNGEEDAKRVIKELQKRNLEIHIEVHGNQWVIKVR [Y26I]	1.53
DIEITTNGEEDAKRVIKELQKRNLEHHIEVHGNQWVIKVR [Y26H]	0.887
DIEITTNGEEDAKRVIKELQKRNLELHIEVHGNQWVIKVR [Y26L]	1.35
DIEITTNGEEDAKRVIKELQKRNLEPHIEVHGNQWVIKVR [Y26P]	0.491
DIEITTNGEEDAKRVIKELQKRNLEAHIEVHGNQWVIKVR [Y26A]	1.07
DIEITTNGEEDAKRVIKELQKRNLEWHIEVHGNQWVIKVR [Y26W]	1.95
DIEITTNGEEDAKRVIKELQKRNLESHIEVHGNQWVIKVR [Y26S]	0.005
DIEITTNGEEDAKRVIKELQKRNLETHIEVHGNQWVIKVR [Y26T]	0.301
DIEITTNGEEDAKRVIKELQKRNLEGHIEVHGNQWVIKVR [Y26G]	0.722
DIEITTNGEEDAKRVIKELQKRNLEVHIEVHGNQWVIKVR [Y26V]	1.42
DIEITTNGEEDAKRVIKELQKRNLEMHIEVHGNQWVIKVR [Y26M]	1.13
DIEITTNGEEDAKRVIKELQKRNLEFHIEVHGNQWVIKVR [Y26F]	2.54
DIEITTNGEEDAKRVIKELQKRNLEYHLEVHGNQWVIKVR [I28L]	2.02

Variant	folding stability dG [kcal/mol]
DIEITTNGEEDAKRVIKELQKRNLEYHVEVHGNQWVIKVR [I28V]	2.53
DIEITTNGEEDAKRVIKELQKRNLEYHHEVHGNQWVIKVR [I28H]	-0.075
DIEITTNGEEDAKRVIKELQKRNLEYHEEVHGNQWVIKVR [I28E]	-0.159
DIEITTNGEEDAKRVIKELQKRNLEYHFEVHGNQWVIKVR [I28F]	1.48
DIEITTNGEEDAKRVIKELQKRNLEYHQEVHGNQWVIKVR [I28Q]	0.128
DIEITTNGEEDAKRVIKELQKRNLEYHYEVHGNQWVIKVR [I28Y]	1.48
DIEITTNGEEDAKRVIKELQKRNLEYHAEVHGNQWVIKVR [I28A]	1.04
DIEITTNGEEDAKRVIKELQKRNLEYHKEVHGNQWVIKVR [I28K]	-0.291
DIEITTNGEEDAKRVIKELQKRNLEYHWEVHGNQWVIKVR [I28W]	1.24
DIEITTNGEEDAKRVIKELQKRNLEYHMEVHGNQWVIKVR [I28M]	1.61
DIEITTNGEEDAKRVIKELQKRNLEYHSEVHGNQWVIKVR [I28S]	0.224
DIEITTNGEEDAKRVIKELQKRNLEYHTEVHGNQWVIKVR [I28T]	1.09
DIEITTNGEEDAKRVIKELQKRNLEYHIMVHGNQWVIKVR [E29M]	1.93
DIEITTNGEEDAKRVIKELQKRNLEYHIIVHGNQWVIKVR [E29I]	2.32
DIEITTNGEEDAKRVIKELQKRNLEYHINVHGNQWVIKVR [E29N]	1.41
DIEITTNGEEDAKRVIKELQKRNLEYHIFVHGNQWVIKVR [E29F]	2.27
DIEITTNGEEDAKRVIKELQKRNLEYHIKVHGNQWVIKVR [E29K]	1.66
DIEITTNGEEDAKRVIKELQKRNLEYHITVHGNQWVIKVR [E29T]	2.33
DIEITTNGEEDAKRVIKELQKRNLEYHILVHGNQWVIKVR [E29L]	1.91
DIEITTNGEEDAKRVIKELQKRNLEYHIQVHGNQWVIKVR [E29Q]	2
DIEITTNGEEDAKRVIKELQKRNLEYHIHVHGNQWVIKVR [E29H]	1.78
DIEITTNGEEDAKRVIKELQKRNLEYHIAVHGNQWVIKVR [E29A]	1.71
DIEITTNGEEDAKRVIKELQKRNLEYHIGVHGNQWVIKVR [E29G]	0.743
DIEITTNGEEDAKRVIKELQKRNLEYHIDVHGNQWVIKVR [E29D]	1.56
DIEITTNGEEDAKRVIKELQKRNLEYHISVHGNQWVIKVR [E29S]	2.14

Variant	folding stability dG [kcal/mol]
DIEITTNGEEDAKRVIKELQKRNLEYHIRVHGNQWVIKVR [E29R]	1.77
DIEITTNGEEDAKRVIKELQKRNLEYRIEVHGNQWVIKVR [H27R]	2.59
DIEITTNGEEDAKRVIKELQKRNLEYLIEVHGNQWVIKVR [H27L]	2.37
DIEITTNGEEDAKRVIKELQKRNLEYYIEVHGNQWVIKVR [H27Y]	2.73
DIEITTNGEEDAKRVIKELQKRNLEYSIEVHGNQWVIKVR [H27S]	3.05
DIEITTNGEEDAKRVIKELQKRNLEYVIEVHGNQWVIKVR [H27V]	2.86
DIEITTNGEEDAKRVIKELQKRNLEYTIEVHGNQWVIKVR [H27T]	3.34
DIEITTNGEEDAKRVIKELQKRNLEYAIEVHGNQWVIKVR [H27A]	2.34
DIEITTNGEEDAKRVIKELQKRNLEYNIEVHGNQWVIKVR [H27N]	2.17
DIEITTNGEEDAKRVIKELQKRNLEYEIEVHGNQWVIKVR [H27E]	2.66
DIEITTNGEEDAKRVIKELQKRNLEYGIEVHGNQWVIKVR [H27G]	1.59
DIEITTNGEEDAKRVIKELQKRNLEYQIEVHGNQWVIKVR [H27Q]	2.45
DIEITTNGEEDAKRVIKELQKRNLEYCIEVHGNQWVIKVR [H27C]	2.6
DIEITTNGEEDAKRVIKELQKRNLEYMIEVHGNQWVIKVR [H27M]	2.54
DIEITTNGEEDAKRVIKELQKRNLEYFIEVHGNQWVIKVR [H27F]	2.57
DIEITTNGEEDAKRVIKELQKRNLEYWIEVHGNQWVIKVR [H27W]	2.69
DIEITTNGEEDAKRVIKELQKRNLEYKIEVHGNQWVIKVR [H27K]	2.46
DIEITTNGEEDAKRVIKELQKRNLEYIIEVHGNQWVIKVR [H27I]	2.84
DIEITTNGEEDAKRVIKELQKRNLEYDIEVHGNQWVIKVR [H27D]	2.48
DIEITTNGEEDAKRVIKELQKRNWEYHIEVHGNQWVIKVR [L24W]	2.05
DIEITTNGEEDAKRVIKELQKRNFEYHIEVHGNQWVIKVR [L24F]	1.81
DIEITTNGEEDAKRVIKELQKRNVEYHIEVHGNQWVIKVR [L24V]	2.19
DIEITTNGEEDAKRVIKELQKRNKEYHIEVHGNQWVIKVR [L24K]	1.67
DIEITTNGEEDAKRVIKELQKRNIEYHIEVHGNQWVIKVR [L24I]	2.46
DIEITTNGEEDAKRVIKELQKRNNEYHIEVHGNQWVIKVR [L24N]	0.681

Variant	folding stability dG [kcal/mol]
DIEITTNGEEDAKRVIKELQKRNPEYHIEVHGNQWVIKVR [L24P]	-0.114
DIEITTNGEEDAKRVIKELQKRNGEYHIEVHGNQWVIKVR [L24G]	0.458
DIEITTNGEEDAKRVIKELQKRNMEYHIEVHGNQWVIKVR [L24M]	2.19
DIEITTNGEEDAKRVIKELQKRNTEYHIEVHGNQWVIKVR [L24T]	1.14
DIEITTNGEEDAKRVIKELQKRNREYHIEVHGNQWVIKVR [L24R]	1.65
DIEITTNGEEDAKRVIKELQKRNEEYHIEVHGNQWVIKVR [L24E]	1.01
DIEITTNGEEDAKRVIKELQKRNSEYHIEVHGNQWVIKVR [L24S]	1.04
DIEITTNGEEDAKRVIKELQKRNHEYHIEVHGNQWVIKVR [L24H]	1.13
DIEITTNGEEDAKRVIKELQKRNYEYHIEVHGNQWVIKVR [L24Y]	1.89
DIEITTNGEEDAKRVIKELQKRNDEYHIEVHGNQWVIKVR [L24D]	0.415
DIEITTNGEEDAKRVIKELQKRNQEYHIEVHGNQWVIKVR [L24Q]	1.45
DIEITTNGEEDAKRVIKELQKRNAEYHIEVHGNQWVIKVR [L24A]	1.7
DIEITTNGEEDAKRVIKELQKKNLEYHIEVHGNQWVIKVR [R22K]	2.17
DIEITTNGEEDAKRVIKELQKLNLEYHIEVHGNQWVIKVR [R22L]	2.88
DIEITTNGEEDAKRVIKELQKYNLEYHIEVHGNQWVIKVR [R22Y]	2.62
DIEITTNGEEDAKRVIKELQKVNLEYHIEVHGNQWVIKVR [R22V]	1.45
DIEITTNGEEDAKRVIKELQKHNLEYHIEVHGNQWVIKVR [R22H]	2.33
DIEITTNGEEDAKRVIKELQKINLEYHIEVHGNQWVIKVR [R22I]	1.54
DIEITTNGEEDAKRVIKELQKTNLEYHIEVHGNQWVIKVR [R22T]	1.51
DIEITTNGEEDAKRVIKELQKWNLEYHIEVHGNQWVIKVR [R22W]	2.65
DIEITTNGEEDAKRVIKELQKSNLEYHIEVHGNQWVIKVR [R22S]	1.76
DIEITTNGEEDAKRVIKELQKQNLEYHIEVHGNQWVIKVR [R22Q]	2.45
DIEITTNGEEDAKRVIKELQKNNLEYHIEVHGNQWVIKVR [R22N]	1.97
DIEITTNGEEDAKRVIKELQKPNLEYHIEVHGNQWVIKVR [R22P]	0.049
DIEITTNGEEDAKRVIKELQKMNLEYHIEVHGNQWVIKVR [R22M]	2.66
